Laboratory results reported in the supplement of paper PMC9170038.

Test system: MS2 coat protein
Assay: apparent KD of MS2 coat protein; designed switch direction (-1 OFF switch, 1 ON switch): -1; higher = weaker reporter binding
How it was run: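 SNAP-549-labelled MS2 coat protein was titrated, doubling from 0.7 or 1.5 nM to 3 µM, over designed RNA switches transcribed on Illumina chips by stalled E. coli RNA polymerase. Runs were done without input, with 200 uM small-molecule ligand, or with an oligonucleotide input. Apparent KD is the per-design median over clusters of curve-fitted normalised fluorescence.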

[1] = Eterna round: R95, input ligand: microRNA oligo, concentration not stated
[2] = input ligand: microRNA oligo, concentration not stated
[3] = Eterna round: R95, input ligand: FMN 200 uM
[4] = Eterna round: R95, input ligand: none

| Sequence | apparent KD of MS2 coat protein [1] [µM] | apparent KD of MS2 coat protein (input ligand: FMN 200 uM) [µM] | apparent KD of MS2 coat protein (input ligand: none) [µM] | other results |
| --- | --- | --- | --- | --- |
| GAGUGACAUGAGGAUCACCCAUGUGAGGAUAUCGGCCGGACCUUGUUAGCUUCCACCGCGAGAAGGCACAUCGG [Exclusion 1 V29] (puzzle: Exclusion 1) | 0.0203 |  |  |  |
| GUAAACGCAGAGGAUAUAUCAGAUCAAAGCUGCAUAGAAGGCUGCACAUGAGGAUCACCCAUGUGGUCUUUAAG [Mat - Exclusion 6 - JL Mod - D4] (Eterna round: R97, puzzle: Exclusion 6) |  | 0.128 | 0.0184 |  |
| UCACCGCAAGGAUAUACUUGCGGUGAUGUUCGAAUCUUUCUACUUGAGGAUCACCCAAGUAGAAGGUGCGGUGA [jl-ex2.4.69 ViennaUCT mod] (Eterna round: R97, puzzle: Exclusion 2) |  | 0.0154 | 0.0122 |  |
| UAGCAUUGCCUUUGGUAGUGCAUUACAUGAGGAUCACCCAUGUAGGAUAUGGUAGGCUUUGCUUACCAGAAGGACAUGAUAAUU [JL ENG3 1.05] (Eterna round: R96, puzzle: Exclusion NG 3) |  | 0.135 | 0.0487 | apparent KD of MS2 coat protein [2]: 0.0389 µM |
| CCGGAAAUACAGGAUAUAGGAGUCAAUAGACUCCUAGAAGGGUAUACAUGAGGAUCACCCAUGUGUCCUACCGG [Fiskers Ex 6 - 66] (Eterna round: R96, puzzle: Exclusion 6) |  | 0.0399 | 0.0277 | apparent KD of MS2 coat protein [2]: 0.0233 µM |
| UGCUGACGAGGAUAUACAUGAGGAUCACCCAUGUUGGUCAAGCGACUUCGGUCGCAAUGUAGAAGGCGUCAGCA [E3/8-A5] (Eterna round: R97, puzzle: Exclusion 3) |  | 0.29 | 0.513 |  |
| AGGAUGAGAGGAUAUACAAACGGUCCCACAAUCUCACGGGCACAUGAGGAUCACCCAUGUAGAAGGCUCAUUGG [EX2 B.28] (Eterna round: R97, puzzle: Exclusion 2) |  | 0.325 | 0.0496 |  |
| CGUUGAAUAGGAUAUACAUGAGGAUCACCCAUGUGAAAUUAUAGUGAGGAAAUGAAAAGUAGAAGGGUUUGACA [Mod of Mat 8 - Jieux - Exclusion 3] (Eterna round: R97, puzzle: Exclusion 3) |  | 0.0276 | 0.0304 |  |
| UUUAAUUUUUUUUUUUUACAAGCUUUUUGCUCGUCUUAUACAUGAGGAUCACCCAUGUGAAUGGAGGAUAAAUUAUC [JMF 30] (puzzle: Sensor v3, turn-off variant 2) | 0.0331 |  |  | apparent KD of MS2 coat protein [3]: 0.0295 µM; apparent KD of MS2 coat protein [4]: 0.026 µM |
| GCACGAAGUGGAGGAUAUCUGGGCGAGGAGCGCAGAGAAGGCCACAUGAGGAUCACCCAUGUGUUCCACGGAUCGCAAACGUGC [exng1 ex2] (Eterna round: R96, puzzle: Exclusion NG 1) |  | 0.0693 | 0.0209 | apparent KD of MS2 coat protein [2]: 0.0144 µM |
| AAUAAUAAAGUCAGGAUAUCUAGAGCUGCGGCUCUAGAGAAGGGACAUGAGGAUCACCCAUGUCACUCAAUAAU [BmEx4/3-D3] (Eterna round: R97, puzzle: Brourd's mod of Exclusion 4) |  | 0.0181 | 0.0147 |  |
| CAAGCUUUGCGAGGAUAUGAUGGCCUAUAUGCCUCAGAAGGCGCAGAAACUUGAGGAUCACCCAAGUGAUGCAAAUACGAAAAU [Mutated MS2 EX1.9] (Eterna round: R96, puzzle: Exclusion NG 1) |  | 0.0781 | 0.0218 | apparent KD of MS2 coat protein [2]: 0.0173 µM |
| ACGGACUGAGGAUAUGCAUGCAGGAUACCUUAGUCCAAGGGACAUGAGGAUCACCCAUGUAGAAGGCGGAAAUA [Riedzaanor] (Eterna round: R97, puzzle: Exclusion 2) |  | 0.0261 | 0.0265 |  |
| CUUGUGUAAGGAUAUCGAGUAGAACGCUCGAGUUCUGAGCUCGAGAAGGUACAUGAGGAUCACCCAUGUUAAAA [Atusgete] (puzzle: Exclusion 4) | 0.0422 |  |  |  |
| GCAAGCUUAAUCUGUAUGAACAUGAGGAUCACCCAUGUAUAAGGGAAUUCUUUUGGGUUUUUUAUUGCUCGUCUUAU [JR_STOV1_Sub024] (Eterna round: R97, puzzle: Sensor, turn-off variant 1) |  | 0.26 | 0.329 |  |
| GCCUUAUCCGUCAGGAUAUACAGCCGCUCCCUGUUGUAGAAGGGACAUGAGGAUCACCCAUGUACGUACCACCC [alecazam9] (Eterna round: R97, puzzle: Brourd's mod of Exclusion 4) |  | 0.0291 | 0.0311 |  |
| CGCACACAUGAGGAUCACCCAUGUGAGGAUAUCAUGCUUCGUAGUAAACUACGAAGUGUGAGAAGGCACAUGUU [Omei Ex1 D9] (Eterna round: R97, puzzle: Exclusion 1) |  | 0.144 | 0.055 |  |
| UUCCUGUCAGGAUAUGACUAGAUGCACGAAAGUGUUUUUAGUUAGAAGGGACAUGAGGAUCACCCAUGUAGUCC [Bring Us a Shrubbery-19] (puzzle: Exclusion 4) | 0.0219 |  |  |  |

| Sequence | apparent KD of MS2 coat protein [1] [µM] | apparent KD of MS2 coat protein (input ligand: FMN 200 uM) [µM] | apparent KD of MS2 coat protein (input ligand: none) [µM] | other results |
| --- | --- | --- | --- | --- |
| CAGCUGAAUGUGAGGAUAUCUAGAGCCUCGGCUCUAGAGAAGGCACAUGAGGAUCACCCAUGUCUCAACAGCUG [BmEx4/2-A2] (Eterna round: R97, puzzle: Brourd's mod of Exclusion 4) |  | 0.249 | 0.0359 |  |
| UUUUUUGUAGUGAGGAUAUCGUUGAGGAUGUGGAUCGAGAAGGCACAUGAGGAUCACCCAUGUUAGAUGUGGUU [JR_BMOE4_Sub083] (puzzle: Brourd's mod of Exclusion 4) | 0.173 |  |  |  |
| GAAAACGCAAAGGAUAUUACAGAUCAAAGCUGCUGAGAAGGUUGCACAUGAGGAUCACCCAUGUGGUCUUUCAA [Mod of Quesina 18 - Jieux - Exclusion 6] (Eterna round: R97, puzzle: Exclusion 6) |  | 0.213 | 0.0273 |  |
| UAAAAUAGUGUGAGGAUAUGCUGGUCCUUGGAUCAGCAGAAGGCACAUGAGGAUCACCCAUGUAGUUAAUUUUA [Mat - Exclusion 4 - JL Mod - D23] (puzzle: Brourd's mod of Exclusion 4) | 0.0308 |  |  |  |
| UGACGCACGCGAGGAUAUUCCCACGAAACAAACAACGAAGGGUACAUGAGGAUCACCCAUGUGGCGAAGAAGGCGCGCGUCCGG [Eternabot solution 1] (Eterna round: R96, puzzle: Exclusion NG 2) |  | 0.923 | 1.31 | apparent KD of MS2 coat protein [2]: 0.503 µM |
| AAACUCUAAGUCAGGAUAUGGCAACGCUAAGGCGACCAGAAGGGACUUGAGGAUCACCCAAGUACCGCUUGUGG [Orardi] (Eterna round: R97, puzzle: Brourd's mod of Exclusion 4) |  | 0.409 | 0.0427 |  |
| GAAUAGCAAGCGAGAUCCCACAUGAGGAUCACCCAUGUGCUCGUCUUAUAAAGUACUGUGACGAAAGUCACGGUACA [Mat - Sensor, turn-off var - Eli Mod - D12] (Eterna round: R97, puzzle: Sensor, turn-off variant 1) |  | 0.0146 | 0.0178 |  |
| AGAAAGCAAGGAUAUACAAGUAAACGACGGAAAGUAGAGAGACAUGAGGAUCACCCAUGUAGAAGGUGCGAGAG [JR_Exclu2_Sub034] (puzzle: Exclusion 2) | 0.0261 |  |  | apparent KD of MS2 coat protein [3]: 0.0247 µM; apparent KD of MS2 coat protein [4]: 0.0262 µM |
| GCCUCACAUGAGGAUCACCCAUGUCAGGAUAUCUAAGGCGAGGUGCAGGCACUUCGUGAGAGAAGGGACGUCAA [Ercecequ] (puzzle: Exclusion 1) | 0.018 |  |  |  |
| GAAAAGGUAGGAUAUACGAAAAAAAAGGGAAGAAAAAAAACACAUGAGGAUCACCCAUGUAGAAGGACCAAAAG [salish99_ex2_r3_064] (puzzle: Exclusion 2) | 0.0216 |  |  | apparent KD of MS2 coat protein [3]: 0.0344 µM; apparent KD of MS2 coat protein [4]: 0.0206 µM |
| ACAAGAUCGGAAGGAUAUUGUACAUGAGGAUCACCCAUGUAAUAAAUGAGGAUCACGGAUGUAGUCAAGAAGGUCCGGAUAAGA [Ostracism 3 - Jieux - Exclusion NG 2] (Eterna round: R96, puzzle: Exclusion NG 2) |  | 0.0369 | 0.0438 | apparent KD of MS2 coat protein [2]: 0.0412 µM |
| CGUCUGUGAGGAUAUGGUAUCGUUUACAUGAGGAUCACCCAUGUUACAUGGGACUAGAGACUAGAAGGUACUGACG [EX5 #47] (Eterna round: R97, puzzle: Exclusion 5) |  | 0.628 | 0.878 |  |
| CCGGUUGGCGCAGGAUAUACAUGAGGAUCACCCAUGUUCGUGAGGAUCACCCAUGAGUUUUUGUUGUAGAAGGGUGGCCCGGCC (Eterna round: R96, puzzle: Exclusion NG 2) |  | 0.0244 | 0.0285 | apparent KD of MS2 coat protein [2]: 0.016 µM |
| GGAUGCUGAGUAAGGAUAUGGUAGGCUUGCGCCUACCAGAAGGUACAUGAGGAUCACCCAUGUUAGCAUCCAGU [eternacac ex4r4 #3] (Eterna round: R97, puzzle: Brourd's mod of Exclusion 4) |  | 0.0196 | 0.0162 |  |
| UGAUCCCAUGUCAGGAUAUAGAGGCGGUAGCCUGGCUAGAAGGGACAUGAGGAUCACCCAUGUCGGUUCUUGCC (puzzle: Brourd's mod of Exclusion 4) | 0.0306 |  |  |  |
| UUUUUGUGAGGAUAUCAGUAGUAAAAUAAAUAAAUUACUACUGAGAAGGCACAUGAGGAUCACCCAUGUUCCUU [Mat - Exclusion 4 - Mod of Salish - D66] (puzzle: Exclusion 4) | 0.0137 |  |  |  |
| GCAUGCUGAGUUAGGAUAUGCUAGCGUUGCCGCUAGCAGAAGGAACAUGAGGAUCACCCAUGUUAGCAUGCAGU [eternacac ex4r4 #2] (Eterna round: R97, puzzle: Brourd's mod of Exclusion 4) |  | 0.016 | 0.014 |  |
